For 1 substance, stoichiometry N results are on record in paper PMC4978220.

Usually stoichiometry N stands for the number of molecules, sites or subunits per partner or assembly.

The assay has as its target full-length PbgA protein with a carboxyl-terminal 6XHis tag (S. Typhimurium). The assay can be described thus: SEC-MALS. (In gel filtration, larger molecules generally elute earlier.)

With “full-length PbgA protein with a carboxyl-terminal 6XHis tag (natural protein)”, the stoichiometry N was 4.
